The text below walks through data of a protein production outcome set (Wang et al. 2014).
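Further: failed if final PepcDB status was selected cloned or expressed and not failed if soluble or beyond.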

The nature of the series: label from the status in PepcDB records.
For “MAIAFHTFLLQLLLFFFASFAEANDSRKTYLVQMKVGGHRYGSSSGHQELLGEVLDDDSYKESFTGFSASLTPRERQKLMSKTTTVSSRRREVLEVSRSRNLKLQTTRSWDFMNLTLKAERNPENESDLVVAVIDSGIWPYSELFGSDSPPPPGWENKCENITCNNKIVGARSYYPKKEKYKWVEEKSVIDVTGHGTHVASIVAGRKVEKAGYFGLAEGTMRGGVPNAKIAVYKTCWRVIRKNGREDSVCREDNILKAIDDAIADKVDIISYSQGFQFTPLQKDKVSWAFLRALKNGILTSAAAGNYANNGKFYYTVANGAPWVMTVAASLKDRIFETKLELEGEDKPIIVYDTINTFETQDSFYPLLNEKAPPESTRKRELIAERNGYSILSNYDEKDKGKDVFFEFAQINLLDEAIKEREKGAIVLGGKSYDFNESIKLQFPIASIFLDEQKKGKLWDYYKKDQSKERLAKIHKTEEIPREEGWVPTVAHLSSRGPNCDSFLANILKPDIAAPGLDIIAGWPENVKLSSDRPANDYRHLRFNIMSGTSMACPHATGLALYLKSFKRWSPSAIKSALMTTSSEMTDDDNEFAYGSGHLNATKVRDPGLVYETHYQDYIDYLCKLGYNTEKLRSHVGSDKIDCSKTEIDHDADLNYPTMTARVPLPLDTPFKKVFHRTVTNVNDGEFTYLREINYRGDKDFDEIIVDPPQLKFSELGETKTFTVTVTGISKRNWNKNRAFMTRNTWLTWTEKDGSRQVRSPIVIYSIKGPKACM”, the protein production result was “failed”.
For the sequence “PSGATGKDGLAIPVGKDTAKSSLTVWEDFRCPACKIFETTYRPTLHELVGAGKLKIDYHLVTIIDDGRGGSGSRQAANAAACAQDAGKFTAYHDVLYDNQPDETVDSFADDSKLIELAGKVDGLDTPAFRKCVKDGTHNSWVVKSNAAFDSGGFKGTPTVLFGGKNLAADPTMTPAKLKQMVEAANK”, the protein production entry is recorded as “failed”.
The entry for “VGPHAALMDATYRHQRRIYDITRRHFLLGRDELIAALAPPPGARVLEIACGTGRNLDLIDRRWPGLRLYGLDISEEMLRTARARLGTRARLAQGDATDFDARALFGAARFERIVISYALSMIPDWRPALAHAASLLSKEGELHVVDFGDQAGLPRWFRTGLRGWIGRFHVEPRDDLGAALAEVAAGVG” is “failed”; for “MTTLLRNETPRRCAFWRGARGILAFVLALALTIQGVAPAWAFLGLGGFTIKDEVELGRKFDVLIKSRMPLVEDPEVKVYVQDIVARLLEQAPPQPFDFKTNVLLHNSLNAFASPGGFIFVHTGLVMQMDHEAEVAGVLAHELAHATQRHIAGRIEKMQTTSILSMAGALAGAFLGGGSGKGAAMAGSIAAGQSAMLNYSRVDETEADEIGLRYLIAAGFRPEGMVGAFEKIRKKQWAMGTDIPSYLSTHPAVNERINSLSARIAALPADIRSRPNDDARFLRVRTICRARYGDPAVSERLFADAPAGDCLAQLGKAILFSRQNRVAEATAAFDKALQCSPKDQLIWREAGRFHYTKGDKGRAAAMLQRATLMNPDDYMALFFYARLLADSGQPQKSYQYFDEVLRRLPEDAEVHYYYGRVLGASGQPFKAYLHLAYSSLYSNDKHKTESFEEQARAQARTPEEMAELERFAATYQERKAFW” it is “failed”; for “MSEGFSSSSIQELYQSLKEITNNADVELFEDRITKLDFESTDEPKHANDIIKDRFLRPSNALPWSLLDMVQDVPHTSSPEDCSGKLDYKELLKVPDPINRTSYQFKRTGLEGKISGYKEEVDLKEVANANASNSLSITRSINHNQNSVRGSTAQLPFTPGGIPMKSVKTDSEQNGSSTMANATKLLHKDGQGLFDIPEGMNRGIKPMDSPAENEDQNGQFKELKQLNEIDNELDIRIEANEAKLKEEEKSAKSISEEIMEEATEETTADNADDAEIDELLPIGIDFGRTKPVSKSVPVKKEWAHVVDLNHKIENFDELIPNPARSWPFELDTFQKEAVYHLEQGDSVFVAAHTSAGKTVVAEYAIAMAHRNMTKTIYTSPIKALSNQKFRDFKETFDDVNIGLITGDVQINPDANCLIMTTEILRSMLYRGADLIRDVEFVIFDEVHYVNDQDRGVVWEEVIIMLPQHVKFILLSATVPNTYEFANWIGRTKQKNIYVISTPKRPVPLEINIWAKKELIPVINQNSEFLEANFRKHKEILNGESAKGAPSKTDNGRGGSTARGGRGGSNTRDGRGGRGNSTRGGANRGGSRGAGAIGSNKRKFFTQDGPSKKTWPEIVNYLRKRELLPMVVFVFSKKRCEEYADWLEGINFCNNKEKSQIHMFIEKSITRLKKEDRDLPQILKTRSLLERGIAVHHGGLLPIVKELIEILFSKGFIKVLFATETFAMGLNLPTRTVIFSSIRKHDGNGLRELTPGEFTQMAGRAGRRGLDSTGTVIVMAYNSPLSIATFKEVTMGVPTRLQSQFRLTYNMILNLLRIEALRVEEMIKYSFSENAKETLQPEHEKQIKVLQEELQTIEYKSCEICDNDIEKFLELMLAYKEATVNLMQEMVKSPSILHILKEGRLVAFRDPNDCLKLGFVFKVSLKDAVCVIMTFTKPYKLPNGEPNHLIYFPKADGYRRRNFPKFQKTDFYMEEVPVTAIEVITKRKFAAPLGKVIKKDVAALNEFNAETNNILDGKTLKEAINIEKQGLKIHQILLDRTNIRDEIFKLKSIKCPNLSQHIVPKFKAHVIKKKIEELYHLMSDQNLSLLPDYEKRLAVLKDTEFIDQNHNVLLKGRVACEINSGYELVLTELILDNFLGSFEPEEIVALLSVFVYEGKTREEEPPIVTPRLAKGKQRIEEIYKKMLCVFNTHQIPLTQDEAEFLDRKRFAMMNVVYEWARGLSFKEIMEMSPEAEGTVVRVITWLDEICREVKTASIIIGNSTLHMKMSRAQELIKRDIVFAASLYL” it is “failed”.
The value for “IHNSRWIMTPEVKEDCKMRLFCLPFAGGGALAYRSWCRYMPPEIELCAVQLPGRENRIKDEKFYDINLLIDELVLQILPYLDKPFALYGHSMGGLISFELARRIRKVKGLTPKILFFSGSKAPQLYDHTKDISHLPDELFLKAIKSFNGMPDMFWQDRELIEFKLPTLRADFSVLEGYNYYNEEPLECPISALCGENDKIISKKDMEALALQTKNQFKLRMFDGDHFFINTCRSKVLKSIIEDLN” was “not failed”; that for “MDKRRVRAIKTFGAAMETYLAHTRWADSTRAVRKHIIDRDILPVFQNRLLTEIQAEDLRILCNKVKERGAPATAVQIRDIVKQVYVYAIAHGEKVVNPADSVGPSSIALEHHHHHH” was “not failed”.
The entry for “MICCLGPRGSYSEKAAVTFSKAINDSEIQFEDSIYNVFKAVETNPEFFGVVPSENSIGGSVSITQDLLLEFPVKILGEVDISINHCLLGYDIKKVTEVLAHPQALAQCGHYITKNNWNITPVDSNAKAAKIVSEEKDEKLAAICGVENAEIYGLNVLDEYIQDFKNNTTRFFLICNKNK” is “failed”; for “MKSLSEHVDFSESKTGNSSSESETGQTLIFLLADLAQRQQIDNTLQSFLNESNAEEILLVANIRCADDEVWLRKYCARFPSVNAILNRRAKSATVLEAQGRWLARYRSQVVLSVDCDESGVKILRKVLPFFTPPVAMEMQKSTLSCQPGEQGLTLIIPAHDCDLYLTDCLASALVIESDKTLVVVDDGSLDDTHGVIAGFASQYPEIIDHISICKASGLPAVPRNIGLASVQTDTFGFIDADDWISPGEYTSALYEMQQMSADIATAAGFTRHYPDRTESLLQKCFTIPENEPANVLEGSFFSNIWNRIYARSILLRSGAYFPRTHFSEDFCFSVWSHFYAEKTIQVSVSFYHHRYGRQGSTTDNRAGSGAFSHITEFHRELEMYLADPFMRKALATILRKRMGSFQYTLKLLPPELIQPFKTALQEMLKPLNRYFISDKEPNKRDIATFAALGISDLLYQRPRSKFLGMRNWGRKWLGMYQQLTKRESHENS” it is “failed”.
On to “AHSSLGAPVHLWGTEEVAAWLEHLSLCEYKDIFTRHDIRGSELLHLERRDLKDLGVTKVGHMKRILCGIKELSRSAPAVEA”, for which the protein production result is reported as “failed”.
The value for “MVLYFIGLGLYDERDITVKGLEIAKKCDYVFAEFYTSLMAGTTLGRIQKLIGKEIRVLSREDVELNFENIVLPLAKENDVAFLTPGDPLVATTHAELRIRAKRAGVESYVIHAPSIYSAVGITGMHIYKFGKSATVAYPEGNWFPTSYYDVIKENAERGLHTLLFLDIKAEKRMYMTANEAMELLLKVEDMKKGGVFTDDTLVVVLARAGSLNPTIRAGYVKDLIREDFGDPPHILIVPGKLHIVEAEYLVEIAGAPREILRVNV” was “not failed”; that for “MSLTKYHDLKNKVIVIAGGIKNLGALTAKTFALESVNLVLHYHQAKDSDTANKLKDELEDQGAKVALYQSDLSNEEEVAKLFDFAEKEFGKVDIAINTVGKVLKKPIVETSEAEFDAMDTINNKVAYFFIKQAAKHMNPNGHIITIATSLLAAYTGFYSTYAGNKAPVEHYTRAASKELMKQQISVNAIAPGPMDTSFFYGQETKESTAFHKSQAMGNQLTKIEDIAPIIKFLTTDGWWINGQTIFANGGYTTREGHHHHHH” was “not failed”; that for “MDPESIMAADGTDSAPANGGLAMENVCVKENGAVSVETVDTTSESQNENSANSSTLDTIEHVKEAAEGTQVEHVDDSKCMKGEKAQRKPRHEKLSGGKNNSSVHIKKSKEGKSADAKVAASNGSVAPNVQTTNPLKSKSFNGREAQVTKQGKHDSAPAESADGEKVKPKSQKKQAHETSEDDTQSSNSPKADDGKPRKVGALPNYGFSFKCDQRAEKRKEFYVKLEEKTHAKEEEINSMQAKSKETQEAELRMLRKSLNFKATPMPSFYQEPQPPKTELKKIPPTRPKSPKLGRKKTASGADSEETQTPRLGRLSLDERASKDNPTAKGIMPTVDLKKQPVRKSLPRLPSQKTVLPDGKPAPAKAAIIPAKVRPEKKKLEKDAETVNQTSHPTEEEAQVTVSSNADVEDSHETVSPRMNEDRADKSIEVSEAVAVEH” was “failed”.
The value for “PIIFVPGIMGSRLKFAKGKKQGTRAWDPDSSGFMFLNYGRFDVSAKKKKALLVGPEFDPDYLEVDTNNPKLDKSFLRRYPRADKRGWGGVMWGSYGPILRALHDHQWEEPVGHCFEFPVHAFGYNWTASNMEAGRKLKEYIGATIDHYAKGLRDEAGRPLERLCTRVILVTHSMGGLVARSACVLHGAAEKVLGVVHGVQPATGSPAAYWRMK” was “failed”.
For “MDKTYILPIPNEYQNLARELSMQSGKIYSKAVSFLKKINRKGLRIKQKTFYRYMEWWIHQKSFILHSQSKQAAYQQAWTNYTATLRKIKKAKKKNKNTSKIRLPYRNKKYNKVCFKDSAIKLEGDNLILVNMKGAERIVIDNVRIGIKPKYAELLYHADKGKYYVHVVVEIAKEQEAKKRSGKTIAIDLGVIHPMVCFDGNKVVVYNGGVLNSILRYRNKKQSLLQSKISGCQKGSKRRGKLQRAKTKLLRRLSNLIRDVLGKYTSHLIGYCVENGITTIVMGDVKGIRNSKKKSNKVASQKVHQWLFRKISKMIEQKAEFAGIEVVYVKENMTSQICPVCGSKNKPLDRNYECKSCGFRYHRDGVGAVNIYRKYTGESLVVGRLACPTGVRFKSHLRCPVEWNTHPWDKNCSTGKVA”, the protein production entry was “failed”.
The value for “MLADPAQPEHVFIVEDSRGATELKLYKSHYTIGKADSCDIRLHSIYASRQHATLVRFLTENGEVRYRLIDGDPETSRRSANGTYVNNRSITECDLKHYDQILFGADVKATYFYLSPQFRSLEHHHHHH” was “failed”; that for “MFDQYRKTILAGAVALTCGLTAASTFAAGFQPAQPAGKLGAVVVDPYGNAPLTALVELDSHIISDVKVTVHGKGEKGVPVTYTVGKESLETYDGIPIFGLYQKFANNVTVEYKENGKAMKDDYVVQTSAIVNHYMDNRSISDLQQTKVIKVAPGFEDRLYLVNTHTFTPQGAEFHWHGEKDKNAGILDAGPAGGALPFDIAPYTFVVDTQGEYRWWLDQDTFYDGHDMNINKRGYLMGIRETPRGTFTAVQGQHWYEFDMMGQILADHKLPRGFLDASHESIETVNGTVLLRVGKRVTAKKTAYMFILFVTKSLRSISLAALEHHHHHH” was “failed”.
For “MTAPAPQTKNAAWGWVLLAGLFEVGFTYALKMSQHDGKYLGLFLLCAIVSFECLAQALKTLPVGLAYAVWTGIGSVGTILVGLVLFGDSLSALRLGLLTVLIGSIAGLKIVDR”, the protein production entry is “failed”.
